Experimental data: US20180188270A1, “DIAGNOSTIC TEST FOR ALZHEIMER'S DISEASE BASED ON IDENTIFICATION OF A PROTEOLYTIC PATHWAY” (Health Research, Inc., priority 2015, published 2018)

Columns and labels:
[1] = test system: FXII; assay: FXII activation, chromogenic assay; format: biochemical, human
Experimental: Measurement of FXII activation. […] FXII activation was followed for 3 h at RT by monitoring the conversion of the chromogenic substrate at 405 nm by a microtiter plate reader.
Each value is mean±SD (n=3).

[2] = test system: plasma mSRC; assay: Plasma SRC concentration in mice by ELISA; format: in vivo, mouse; conditions: FXII−/− mice, CCl4 0.5 g/kg or hPEPD 4 mg/kg i.p., 24 h
Experimental: Animal studies. All animal studies were performed in accordance with protocols approved by the Institutional Animal Care and Use Committee at Roswell Park Cancer Institute. Male mice at 7-8 weeks of age were used, including wild type (WT) mice (C57BL/6), and mice deficient in FXII (C57BL/6-FXII^−/−) or FVII (C57BL/6-FVII^tTA/tTA). WT C57BL/6 mice were purchased from Taconic. C57BL/6-FXII^−/− mice and C57BL/6-FVII^tTA/tTA mice were bred in our own facility and genotyped. The breeders were kindly provided by Dr. Francis J. Castellino at University of Notre Dame. […] CCl4 was dissolved in corn oil, whereas all other substances were dissolved in PBS. The vehicle or the test substance was given to mice in 0.1 ml volume per 20 g body weight. Blood was collected from the mice at specific times by cardiac puncture at the time of sacrifice by carbon dioxide, and heart, liver and kidney were also collected from some of the mice. […]
Measurement of plasma levels of PEPD, SRC, Aβ1-42 and FI. […] Upon adequate color development, 100 μl of stop solution (Cell Signaling, 7002) was added to each well, and absorbance at 450 nm was promptly recorded by a microtiter plate reader. Plasma FI concentration was determined using an assay kit (400-374-130050) from GenWay Biotech, following the manufacturer's instruction.

[3] = test system: plasma coagulation factors FXII, PK, HMWK, FXI, FIX, FX, FII, FI and FVII; assay: Changes in plasma coagulation factors in mice by IB (FI by ELISA); format: in vivo, mouse; conditions: 6 h after i.p. treatment
[4] = test system: ERBB1 and ERBB2; assay: Tissue levels and phosphorylation of ERBB1 and ERBB2 by IB; format: in vivo, mouse; conditions: CCl4 0.5 g/kg or hPEPD 4 mg/kg i.p., 24 h
Experimental: Animal studies. All animal studies were performed in accordance with protocols approved by the Institutional Animal Care and Use Committee at Roswell Park Cancer Institute. Male mice at 7-8 weeks of age were used, including wild type (WT) mice (C57BL/6), and mice deficient in FXII (C57BL/6-FXII^−/−) or FVII (C57BL/6-FVII^tTA/tTA). WT C57BL/6 mice were purchased from Taconic. C57BL/6-FXII^−/− mice and C57BL/6-FVII^tTA/tTA mice were bred in our own facility and genotyped. The breeders were kindly provided by Dr. Francis J. Castellino at University of Notre Dame. […] CCl4 was dissolved in corn oil, whereas all other substances were dissolved in PBS. The vehicle or the test substance was given to mice in 0.1 ml volume per 20 g body weight. Blood was collected from the mice at specific times by cardiac puncture at the time of sacrifice by carbon dioxide, and heart, liver and kidney were also collected from some of the mice. Blood was collected into K3 EDTA-containing tubes (Multivette 600 from Sarstedt), unless specified otherwise. All blood samples were promptly centrifuged to obtain plasma samples.
IB. […] Protein concentrations in all samples were measured by the BCA assay kit. […] The proteins were transferred to polyvinylidene fluoride membrane, probed with specific antibodies and detected using the ECL Plus Kit (Amersham) or the SuperSignal West Pico Kit (Thermo Scientific).

[5] = molecular target: T1, FIIa (Homo sapiens, UniProt P00734); assay: hPEPD stability on incubation with FIIa; format: biochemical; conditions: hPEPD 90 nM, FIIa 100 nM
T1 construct: purchased Haematologic Technologies HCT-0020
Experimental: (§1) Measurement of in vitro degradation of hPEPD, mSRC and hAβ1-42. To determine whether a blood coagulation factor degrades hPEPD, hPEPD at 90 nM or lower concentrations (10 or 40 nM) was incubated with solvent, 100 nM FIIa, 100 nM FXa, 10 nM FVIIa with or without 10 nM TF, or 10 nM FVII with or without 10 nM TF and/or 100 nM FIIa in PBS in a total volume of 100 μl containing 5 mM CaCl2 for desired times at RT. […] To compare the hPEPD-degrading activities of different plasma samples, 9.2 pmol of hPEPD was incubated with 100 μl of plasma from WT mice or FVII^tTA/tTA mice at RT, with or without FIIa or FXa (10 pmol), and to maximize detection of any activity, all incubations lasted for 24 h. […] To measure remaining hPEPD, the incubated samples were cleared of potential fibrin clots by centrifugation and then analyzed by SDS-PAGE and silver staining (using the LC 6070 kit from Invitrogen), IB or measurement of hPEPD enzymatic activity. hPEPD enzymatic activity was measured using glycyl-proline as a substrate (as described in Zbucka et al., Folia Histochem Cytobiol 2007; 45 Suppl 1: S181-185). The precipitates from each incubated sample were washed with PBS twice and then resuspended in 2.5% SDS (20 μper sample); each solution was mixed with 10 μl loading dye and analyzed for hPEPD by IB, using pure hPEPD as a standard and factor FXIIIa as a binding control, respectively.

[6] = test system: plasma Aβ1-42; assay: Plasma Aβ1-42 concentration in mice by ELISA; format: in vivo, mouse; conditions: FXII−/− mice, CCl4 0.5 g/kg or hPEPD 4 mg/kg i.p., 24 h
[7] = molecular target: T2, FXa (Homo sapiens, UniProt P00742); assay: hPEPD stability on incubation with FXa; format: biochemical; conditions: hPEPD 90 nM, FXa 100 nM
T2 construct: purchased Haematologic Technologies HCXA-0060
T2 sequence (P00742 41-179 limits assumed): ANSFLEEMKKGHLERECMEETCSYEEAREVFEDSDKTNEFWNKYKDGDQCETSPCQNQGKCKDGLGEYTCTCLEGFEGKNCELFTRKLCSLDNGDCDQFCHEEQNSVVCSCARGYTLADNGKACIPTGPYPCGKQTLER
T2 sequence (P00742 235-488 limits assumed): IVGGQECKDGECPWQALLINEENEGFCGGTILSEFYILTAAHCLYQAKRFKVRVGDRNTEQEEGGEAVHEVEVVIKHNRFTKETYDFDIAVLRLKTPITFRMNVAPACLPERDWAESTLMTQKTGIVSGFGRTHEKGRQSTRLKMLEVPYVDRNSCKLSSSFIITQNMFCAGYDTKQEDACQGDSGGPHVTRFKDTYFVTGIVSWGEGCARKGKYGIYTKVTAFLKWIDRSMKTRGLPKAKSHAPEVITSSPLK
Experimental: as §1

effect of FIIa on hPEPD stability [5]: had no effect on hPEPD stability
effect of FXa on hPEPD stability [7]: had no effect on hPEPD stability
B1: hPEPD: recombinant human prolidase (PEPD), 6xHis tagged to the carboxy terminus (protein, UniProt P12955 2-493, looked up)
Xaa-Pro dipeptidase: AAATGPSFWLGNETLKVPLALFALNRQRLCERLRKNPAVQAGSIVVLQGGEETQRYCTDTGVLFRQESFFHWAFGVTEPGCYGVIDVDTGKSTLFVPRLPASHATWMGKIHSKEHFKEKYAVDDVQYVDEIASVLTSQKPSVLLTLRGVNTDSGSVCREASFDGISKFEVNNTILHPEIVECRVFKTDMELEVLRYTNKISSEAHREVMKAVKVGMKEYELESLFEHYCYSRGGMRHSSYTCICGSGENSAVLHYGHAGAPNDRTIQNGDMCLFDMGGEYYCFASDITCSFPANGKFTADQKAVYEAVLRSSRAVMGAMKPGVWWPDMHRLADRIHLEELAHMGILSGSVDAMVQAHLGAVFMPHGLGHFLGIDVHDVGGYPEGVERIDEPGLRSLRTARHLQPGMVLTVEPGIYFIDHLLDEALADPARASFLNREVLQRFRGFGGVRIEEDVVVTDSGIELLTCVPRTVEEIEACMAGCDKAFTPFSGPK
modifications: C-terminal 6xHis tag
notes: recombinant human prolidase (PEPD), 6xHis tagged to the carboxy terminus
FXII activation ([1]; FXII 0.97 nM, ZnCl2-containing PBS, RT): did not differ in activating FXII
Zn2+ requirement of FXII activation ([1]; with or without ZnCl2 15 μM, IB): required Zn^2+
average plasma level of mSRC, increase [2]: remained unchanged
activation/cleavage of plasma coagulation factors ([3]; FXII−/− mice): no activation of HMWK, FXI, PK and FIX, but slight activation of FX, FII and FVII
activation/cleavage of plasma coagulation factors ([3]; WT mice): caused cleavage or activation of many coagulation factors
changes in ERBB1/ERBB2 tyrosine phosphorylation and receptor depletion in heart, kidney and liver, WT mice compared to FXII−/− mice [4]: reduced changes in receptor tyrosine phosphorylation
average plasma level of mAβ1-42, increase [6]: remained unchanged
